Data taken from US20160355586A1 (published 2016).

B1: tetrameric antibody hu3G8VH-1 / hu3G8VL-1 (antibody, IgG1, V domains shown)
VH: QVTLRESGPALVKPTQTLTLTCTFSGFSLSTSGMGVGWIRQPPGKALEWLAHIWWDDDKRYNPALKSRLTISKDTSKNQVVLTMTNMDPVDTATYYCARINPAWFAYWGQGTLVTVSS
VL: DIVMTQSPDSLAVSLGERATINCKASQSVDFDGDSFMNWYQQKPGQPPKLLIYTTSNLESGVPDRFSGSGSGTDFTLTISSLQAEDVAVYYCQQSNEDPYTFGQGTKLEIK
notes: VH on human Cgamma1 constant region (IgG1)
B2: tetrameric antibody hu3G8VH-22 / hu3G8VL-1 (antibody, IgG1, V domains shown)
VH: QVTLRESGPALVKPTQTLTLTCTFSGFSLSTSGVGVGWIRQPPGKALEWLAHIWWDDDKRYSPSLKSRLTISKDTSKNQVVLTMTNMDPVDTATYYCARINPAYFAYWGQGTLVTVS
VL: DIVMTQSPDSLAVSLGERATINCKASQSVDFDGDSFMNWYQQKPGQPPKLLIYTTSNLESGVPDRFSGSGSGTDFTLTISSLQAEDVAVYYCQQSNEDPYTFGQGTKLEIK
notes: VH on human Cgamma1 (IgG1)
B3: tetrameric antibody hu3G8VH-5 / hu3G8VL-1 (antibody, IgG1, V domains shown)
VH: QVTLRESGPALVKPTQTLTLTCTFSGFSLSTSGMGVGWIRQPPGKALEWLAHIWWDDDKRYNPALKSRLTISKDTSKNQVVLTMTNMDPVDTATYYCAQINPAWFAYWGQGTLVTVSS
VL: DIVMTQSPDSLAVSLGERATINCKASQSVDFDGDSFMNWYQQKPGQPPKLLIYTTSNLESGVPDRFSGSGSGTDFTLTISSLQAEDVAVYYCQQSNEDPYTFGQGTKLEIK
notes: VH on human Cgamma1 (IgG1)

Target: T1, CD16A (human, UniProt P08637 17-208, limits assumed)
T1 construct: Target of the hu3G8 VH/VL variant screen of section 5.1.2; also called FcγRIIIA
T1 sequence (P08637 17-208 limits assumed): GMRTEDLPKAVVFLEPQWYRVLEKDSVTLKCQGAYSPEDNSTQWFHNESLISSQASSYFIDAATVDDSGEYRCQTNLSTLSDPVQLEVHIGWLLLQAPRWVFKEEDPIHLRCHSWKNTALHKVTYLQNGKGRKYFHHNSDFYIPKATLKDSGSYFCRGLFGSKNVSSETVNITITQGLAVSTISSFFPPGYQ
Assay: tetrameric IgG1 with hu3G8VL-1 light chain; binding to CD16A, method not named

Binding result, binds:
B1
B2
B3
